Key:
[1] = tested on: primary bone marrow cells; experiment: Osteoclastogenesis in mouse primary bone marrow co-culture assay (TRAP staining); type: cell-based; settings: bone marrow cells co-cultured with TM40D-Mp vs TM40D cells; TRAP-positive cells with 2 or more nuclei
Excerpt: FIG. 2. […] Osteoclastogenesis analyses of primary bone marrow cells co-cultured with breast cancer cells with or without maspin expression. (Panel A) Newly isolated primary bone marrow cells only (control). (Panel B) Bone marrow cells co-cultured with mammary tumor TM40D cells. (Panel C) Bone marrow cells co-cultured with maspin-expressing TM40D-Mp cells. (Panel D) Bone marrow cells co-cultured with TM40D-Mp cells and rabbit anti-maspin antibody. (Panel E) Bone marrow cells co-cultured with TM40D-Mp cells and rabbit IgG. (F) Summary of percentage of osteoclasts in co-cultured cells analyzed by TRAP staining. TRAP-positive cells containing 2 or more nuclei are defined as osteoclasts.

[2] = tested on: mouse tibiae inoculated with mammary tumor cells TM40D or maspin-expressing TM40D-Mp; experiment: Osteolytic bone degradation in tumor-inoculated BALB/c mice (X-ray, H&E, TRAP staining of tibiae); type: in vivo
Excerpt: FIG. 1. […] Panel A-B: Representative X-ray radiographs of mouse tibiae inoculated with mammary tumor cells TM40D (Panel A) or maspin-expressing TM40D-Mp tumor cells (Panel B), at the end point of 4 weeks following tumor inoculation. Note that mice inoculated with TM40D tumors display severe osteolytic lesion comparing to that with TM40D-Mp cells. Panel E: Summary of osteolytic lesion data (radiography analysis) in 20 mice (10 mice/group) at 2-week and 4-week time points. Panel C: Histological analysis of bone section of tumor-inoculated tibiae by H&E staining. Arrow heads indicate osteoclastic cells. Panel D: TRAP (tartrate-resistant acid phosphatase) staining of osteoclastic cells in bone sections. Arrows indicate osteoclastic cells. Panel F: Summary of TRAP staining data of osteoclasts in mouse tibiae inoculated with TM40D or TM40D-Mp cells.

[3] = tested on: mature osteoclasts from RAW246.7; experiment: Osteoclast actin ring formation (phalloidin staining); type: cell-based; settings: RANKL 50 ng/ml pre-culture 8 days; 2 hours at 37° C.
Protocol: FIG. 6. Panels A-C: Maspin inhibits osteoclast actin ring formation. Osteoclasts display osteolytic activity by forming actin rings. RAW246.7 were pre-cultured with RANKL (50 ng/ml) for 8 days to form mature osteoclasts. Cells were first washed with cold PBS twice to disrupt actin rings, warm medium with RANKL were added to cell culture with or without Gst or GST-maspin and cells were then cultured for 2 hours at 37° C. Cells were then washed and stained with phalloidin for actin ring formation. Cells with strong and clear actin ring belts were counted as positive. Five fields of cell staining were counted for each sample and experiments repeated three times. The percentage of cells forming strong and clear actin rings was calculated.

calvariae = experiment: New bone formation in ex vivo calvariae organ culture model; design: species or system BABL/c new-born mice; settings: 7 days organ culture
Excerpt: FIG. 7. […] Panel A, calvariae were removed from 4 days-old BABL/c new-born mice and cultured in an ex vivo organ culture medium. They were either treated with or without concentrated conditional medium from mouse mammary tumor TM40D cells or maspin-expressing TM40D-Mp cells or with recombinant maspin (GST-Mp) with or without an anti-maspin antibody for 7 days. H&E staining of representative images were shown. Arrows indicate osteoblast cells. Arrowhead indicates new bone area. Panel B, quantitation of the average number of osteoblasts under different treatments listed in Panel A.

[4] = Long-term treatment with maspin in animals; type: in vivo
Excerpt: Because bone is tissue under constant balancing actions between bone-degrading osteoclasts and bone-forming osteoblasts, inhibiting the formation and activity of osteoclasts will favor or promote osteoblastic activity, thereby promoting new bone formation and bone wound healing. Further, maspin is naturally produced by osteoblasts in the bone microenvironment. This represents a previously unappreciated and unexploited mechanism for osteoblast-produced maspin counteracting the effect of osteclastic activity. […] Therefore, maspin may be delivered to human patients as a non-toxic therapeutic product against various bone diseases.

RAW246.7 cells = experiment: Differentiation assay of pre-osteoclastic RAW246.7 cells under RANKL (TRAP staining); type: cell-based; settings: maspin 0.1-10 ug/ml; RANKL 50-100 ng/ml; 8 days
Protocol: FIG. 3. […] RAW246.7 cells were treated with RANKL (50 -100 ng/ml) and different doses of maspin for 8 days, and cell cultures were used for TRAP staining.

[5] = overexpression of maspin in vivo; cited from earlier work

B1: Maspin: Maspin (mammary serine protease inhibitor), a serpin protein encoded by the SERPINB5 gene; human wild-type is SEQ ID NO: 1 (protein, listed as Homo sapiens)
chain: MDALQLANSAFAVDLFKQLCEKEPLGNVLFSPICLSTSLSLAQVGAKGDTANEIGQVLHFENVKDIPFGFQTVTSDVNKLSSFYSLKLIKRLYVDKSLNLSTEFISSTKRPYAKELETVDFKDKLEETKGQINNSIKDLTDGHFENILADNSVNDQTKILVVNAAYFVGKWMKKFPESETKECPFRLNKTDTKPVQMMNMEATFCMGNIDSINCKIIELPFQNKHLSMFILLPKDVEDESTGLEKIEKQLNSESLSQWTNPSTMANAKVKLSIPKFKVEKMIDPKACLENLGLKHIFSEDTSDFSGMSETKGVALSNVIHKVCLEITEDGGDSIEVPGARILQHKDELNADHPFIYIIRHNKTRNIIFFGKFCSP
osteoclast formation [1]: inhibits osteoclast formation
osteoclast numbers (TRAP staining) in mouse tibiae ([2]; TM40D-Mp vs TM40D tumor cells): significantly decreased osteoclast numbers
osteolytic bone degradation (radiography) ([2]; tibiae inoculated with TM40D-Mp vs TM40D tumor cells, 2-week and 4-week time points): inhibits osteolytic bone degradation
percentage of cells forming strong and clear actin rings [3]: 53%
new bone formation (calvariae): promotes new bone formation
side effects [4]: no side effects
osteoclast formation under RANKL stimulation (RAW246.7 cells): completely inhibits osteoclast formation
toxic side effects [5]: does not have any observable toxic side effects

Source: patent publication US20210113652A1, “MASPIN-BASED INHIBITION OF OSTEOCLAST ACTIVITY AND PROMOTION OF BONE FORMATION” (Northwestern University, priority 2016, published 2021)
